Values belong to the molecule of their own block, whether it stands above or below them. Positions of bridges follow the written chain, without caps; N, C: chain ends. No end group written: not given here.
Key:
human β-klotho (human) = human β-klotho (human) (UniProt Q86Z14); assay: cell-based or functional assay
[1] = molecular target: β-klotho of differentiated 3T3-L1 adipocytes (mouse) (UniProt Q99N32); assay: cell-based or functional assay
human serum albumin [2] = molecular target: T1, human serum albumin (human, UniProt P02768 25-609); assay: comment in the summary table; Biacore at lowered pH; target not given, HSA by paragraph 278
T1 construct: mature; Purified or recombinant albumin from suppliers; also called HSA; HuSA

human serum albumin [3] = molecular target: T1, human serum albumin; assay: isothermal titration calorimetry (refers to FIG. 11)
Description: SABA-FGF21 fusion protein plus buffer was placed in the instrument sample cell at a concentration range of 0.4 to 1.0 mg/mL protein. The matching buffer was placed in the reference cell. Concentrations were determined using extinction coefficients calculated from the protein sequences of the pure proteins. The instrument reaction cell was equilibrated at 37° C. […] The resultant thermogram data was fitted using Origin™ evaluation software package (Microcal Inc.) version 2.0.2 to estimate the stochiometry, enthalpy, and equilibrium disassociation constant (K_D) of the protein-protein binding reaction.

Amylin receptor = Amylin receptor (chimpanzee; human, UniProt O60896 24-148); assay: cell-based or functional assay
Chain of Amylin receptor (O60896 24-148): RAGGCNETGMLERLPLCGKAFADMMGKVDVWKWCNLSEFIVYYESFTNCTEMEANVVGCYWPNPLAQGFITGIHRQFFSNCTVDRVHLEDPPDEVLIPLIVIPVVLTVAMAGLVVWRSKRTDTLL

Chain of β-klotho of differentiated 3T3-L1 adipocytes (mouse) (Q99N32 whole entry): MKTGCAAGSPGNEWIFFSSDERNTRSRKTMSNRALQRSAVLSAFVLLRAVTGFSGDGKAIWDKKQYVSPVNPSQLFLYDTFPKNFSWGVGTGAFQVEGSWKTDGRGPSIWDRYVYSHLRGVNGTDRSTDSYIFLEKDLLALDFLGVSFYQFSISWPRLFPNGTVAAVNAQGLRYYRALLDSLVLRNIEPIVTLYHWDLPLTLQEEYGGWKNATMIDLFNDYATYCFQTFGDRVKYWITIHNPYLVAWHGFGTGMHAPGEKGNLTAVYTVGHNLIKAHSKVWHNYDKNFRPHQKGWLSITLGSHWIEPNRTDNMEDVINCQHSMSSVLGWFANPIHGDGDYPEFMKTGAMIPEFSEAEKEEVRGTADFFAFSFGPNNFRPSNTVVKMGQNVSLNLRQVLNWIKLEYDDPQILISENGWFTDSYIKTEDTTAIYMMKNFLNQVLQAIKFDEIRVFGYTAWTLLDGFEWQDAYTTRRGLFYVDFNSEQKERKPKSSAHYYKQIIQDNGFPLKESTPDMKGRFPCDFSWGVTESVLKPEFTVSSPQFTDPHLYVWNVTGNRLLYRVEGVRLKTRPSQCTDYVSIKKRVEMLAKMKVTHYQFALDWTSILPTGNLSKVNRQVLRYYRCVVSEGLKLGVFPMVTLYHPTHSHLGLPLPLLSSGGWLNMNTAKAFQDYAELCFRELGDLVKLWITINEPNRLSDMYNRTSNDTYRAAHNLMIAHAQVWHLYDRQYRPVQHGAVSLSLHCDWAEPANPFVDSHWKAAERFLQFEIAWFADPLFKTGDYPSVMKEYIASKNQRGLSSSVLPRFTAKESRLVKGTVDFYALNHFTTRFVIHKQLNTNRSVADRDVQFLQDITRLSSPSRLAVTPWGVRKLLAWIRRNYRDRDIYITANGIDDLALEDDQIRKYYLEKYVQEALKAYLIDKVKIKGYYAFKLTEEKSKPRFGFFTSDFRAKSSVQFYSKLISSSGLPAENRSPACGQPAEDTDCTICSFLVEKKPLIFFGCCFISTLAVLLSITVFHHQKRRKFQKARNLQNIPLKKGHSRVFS

EC50 (potency), pERK 1/2 in HEK β-Klotho expressing stable cells (human β-klotho (human)): 7 nM
Efficacy (% of His6-tagged FGF21 maximal activity), pERK 1/2 in HEK β-Klotho expressing stable cells (human β-klotho (human)): 100%
EC50, pERK 1/2 in 3T3-L1 adipocytes [1]: 4 nM
Fold Activation, pERK 1/2 in 3T3-L1 adipocytes [1]: 2.1 fold
Molecule: His-tagged FGF21 (from UniProt Q9NSA1 29-209) (ligand)

fold decrease in KD at pH < 6.0 (human serum albumin [2]): > 2 fold
B1: SABA4.1 (designed binder)
chain: MGVSDVPRDLEMVAATPTSLLISWEDDSYYSRYYRITYGETGGNSPVQEFTVPSDLYTATISGLKPGVDYTITVYAVTYDVTDLIMHEPISINYRTEIDKPSQHHHHHH
notes: Core 4 Adnectin (carries a scaffold mutation) with AdNT1, AdCT1 and His6

fold decrease in KD at pH < 6.0 (human serum albumin [2]): > 2 fold
B2: SABA5.1 (designed binder)
chain: MGVSDVPRDLEVVAATPTSLLISWEDDSYYSRYYRITYGETGGNSPVQEFTVPSDLYTATISGLKPGVDYTITVYAVTYDVTDLIMHEPISINYRTEIDKPSQHHHHHH
notes: Scaffold-perfect version of SABA4 with the same BC, DE and FG loops; AdNT1, AdCT1 and His6

Kd (human serum albumin [3]): ~4 nM
B3: SABA1-FGF21v1 (designed binder)
chain: MGVSDVPRDLEVVAATPTSLLISWHSYYEQNSYYRITYGETGGNSPVQEFTVPYSQTTATISGLKPGVDYTITVYAVYGSKYYYPISINYRTEIEKPSQGSGSGSGSGSGSGSPIPDSSPLLQFGGQVRQRYLYTDDAQQTEAHLEIREDGTVGGAADQSPESLLQLKALKPGVIQILGVKTSRFLCQRPDGALYGSLHFDPEACSFRELLLEDGYNVYQSEAHGLPLHLPGNKSPHRDPAPRGPARFLPLPGLPPALPEPPGILAPQPPDVGSSDPLSMVGPSQGRSPSYAS
notes: Single-chain fusion: SABA core 1 with AdNT1 leader and AdCT7 tail, (GS)7 linker, FGF21 core with FNT3 leader and C-terminal S; also called SABA-FGF21v1 fusion; FGF21-SABA fusion

Cell based Potency (EC50), cellular cAMP assay (Amylin receptor): 12.2 nM
Efficacy (% of native peptide ligand maximal activity), cellular cAMP assay (Amylin receptor): 119%
B4: SABA1.7-(ED)5G-Cys-PEG20-Amylin-CONH2 (designed binder)
chain: MGVSDVPRDLEVVAATPTSLLISWHSYYEQNSYYRITYGETGGNSPVQEFTVPYSQTTATISGLKPGVDYTITVYAVYGSKYYYPISINYRTEIEDEDEDEDEDGC
modifications: Maleimide-PEG20 spacer (X1) between the Cys after (ED)5G and the amylin peptide; disulfide bridge between the two Cys of the amylin part; C-terminal amidation

Efficacy (% of native peptide ligand maximal activity), cellular cAMP assay (Amylin receptor): 100%
Molecule: KCNTATCATQRLANFLVRSSNNLGPVLPPTNVGSNTY-NH2 (disulfide 2-7) [Amylin Control Peptide]

From US8969289
